The text below walks through data of patent publication US20260102474A1 (published 2026).

Residue numbers refer to the chain shown, from its start.

For assay [1], the target named is SARS-COV-2 full-length trimeric spike protein, parental (SARS-COV-2, UniProt P0DTC2 14-1213). The assay is described as follows: competition.
The target in assay [2] is SARS-COV-2 spike protein on Caco-2 cells infected with the original version of SARS-COV-2 (SARS-COV-2-mNG) (SARS-COV-2, UniProt P0DTC2 14-1273). The assay is described as follows: flow.

B1: ACE2-M2-FcKO (Fc fusion)
chain: STIEEQAKYFLDYFNVQAEDLFYQSSLASWNYNTNITEENVQNMNNAGDKWSAFLKEQSTYAQRYPLQEIQNLTVKLQLQALQQNGSSVLSEDKSKRLNTILNTMSTIYSTGKVCNPDNPQECLLLEPGLNEIMANSLDYNERLWAWESWRSEVGKQLRPLYEEYVVLKNEMARANHYEDYGDYWRGDYEVNGVDGYDYSRGQLIEDVEHTFEEIKPLYEHLHAYVRAKLMNAYPSYISPIGCLPAHLLGDMWGRFWTNLYSLTVPFGQKPNIDVTDAMVDQAWDAQRIFKEAEKFFVSVGLPNMTQGFWEYSMLTDPGNVQKAVCHPTAWDLGKGDFRILMCTKVTMDDFLTAHREMGRIQYDMAYAAQPFLLRNGANEGFHEAVGEIMSLSAATPKHLKSIGLLSPDFQEDNETEINFLLKQALTIVGTLPFTYMLEKWRWMVFKGEIPKDQWMKKWWEMKREIVGVVEPVPHDETYCDPASLFHVSNDYSFIRYYTRTLYQFQFQEALCQAAKHEGPLHKCDISNSTEAGQKLFNMLRLGKSEPWTLALENVVGAKNMNVRPLLNYFEPLFTWLKDQNKNSFVGWSTDWSPYADQSIKVRISLKSALGDKAYEWNDNEMYLFRSSVAYAMRQYFLKVKNQMILFGEEDVRVANLKPRISFNFFVTAPKNVSDIIPRTEVEKAIRMSRSRINDAFRLNDNSLEFLGIQPTLGPPNQPPVSSGGGGSGGGGSGGGGSEPKSSDKTHTCPPCPAPPVAGPSVFLFPPKPKDTLMISRTPEVTCVVVGVSHEDPEVKFNWYVDGVEVHNAKTKPREEQYNSTYRVVSVLTVLHQDWLNGKEYKCKVSNKQLPSPIEKTISKAKGQPGQPREPQVYTLPPSRDELTKNQVSLTCLVKGFYPSDIAVEWESNGQPENNYKTTPPVLDSDGSFFLYSKLTVDKSRWQQGNVFSCSVMHEALHNHYTQKSLSLSPGK
As usually defined, the IC50 is the point on the concentration scale where inhibition reaches its midpoint. Usually EC50 stands for the concentration needed to bring the measured effect to its halfway point. High values mean weaker potency, low ones greater potency. As for B1, in assay [1], the IC50 worked out at 9.4 nM. Further, the EC50 in assay [2] was found to be 0.48 µg/mL.

B2: ACE2-M1-FcKO (Fc fusion)
chain: B1 chain with Y13K, V16H, Q17E, R64M
For B2, the half-maximal inhibitory concentration (IC50) in assay [1] came to 3.8 nM. The molecule further displayed an EC50 in assay [2] of 0.29 µg/mL.
